The target in assay [1] is unlabeled protein extract from untreated animals. As to the kind of experiment: direct TR-FRET inhibition; six-fold excess of unlabeled extract from untreated rabbits as competitor against biotinylated atheromatous extract, 16 h at 4 °C. For orientation: In TR-FRET formats the signal depends on donor and acceptor labels being close together.
The target in assay [2] is rabbit atheromatous protein extract. As to the kind of experiment: direct TR-FRET inhibition; six-fold excess of unlabeled atheromatous extract as competitor against biotinylated atheromatous extract, 16 h at 4 °C.

B1: I8.1 scFv antibody (scFv)
scFv: EVQLVESGGSLVKPGGSLRLSCAASGFTFSNYSMNWVRQAPGKGLEWISSISGSSRYIYYADFVKGRFTISRDNATNSLYLQMNSLRAEDTAVYYCVRNSFYASWSKDYSMEIWGRGTLVTVSSGGGGSGGGGSGGGGSQSVLTQPASVSGSPGQSITISCAGTSSDVGGYNYVSWYQQHPGKAPKLMIYEDSKRPSGVSNRFSGSKSGNTASLTISGLQAEDEADYYCQSWASRINIFGGGTKLAV
In the case of B1, the inhibition of the DeltaF binding value was determined as 35% in assay [1] and 80% in assay [2].

B2: H2.1 scFv antibody (scFv)
scFv: EVQLVESGGSLVKPGGSLRLSCAASGFTFSNYSMNWVRQAPGKGLEWISSISGSSRYIYYADFVKGRFTISRDNATNSLYLQMNSLRAEDTAVYYCVRGGVDSSGDNCFDLWGRGTLVTVSSGGGGSGGGGSGGGGSQSVLTQPASVSGSPGQSITISCAGTSSDVGGYNYVSWYQQHPGKAPKLMIYEDSKRPSGVSNRFSGSKSGNTASLTISGLQAEDEADYYCTSYGSGATLVFGGGTKLAV
Turning to B2, the figures for the inhibition of the DeltaF binding value in assay [1] and in assay [2] were 50% and 75%, respectively.

These data come from patent US20140328753A1.
